According to patent US11505583B2, “Proteins for the treatment of epithelial barrier function disorders” (Second Genome, Inc., priority 2018, dated 2022):

Assays:
[1] = tested on: human colonic epithelial cells (HCT8 enterocytes and HT29-MTX goblet cells) co-cultured with U937 monocytes; assay: In vitro trans-epithelial electrical resistance (TEER) co-culture assay, barrier disruption by heat killed E. coli; format: cell-based; settings: Example 12; 1 μg/ml (40 nM), 6 hours pre-incubation; HK E. coli alone 78.6%; FIG. 17
Procedure: Assays were performed as described below in trans-well plates where co-cultures of multiple cell types were performed utilizing a permeable membrane to separate cells. In the apical (top) chamber, human colonic epithelial cells, consisting of a mixture of enterocytes and goblet cells, were cultured until cells obtained tight junction formation and barrier function capacity as assessed by measurement of trans-epithelial electrical resistance (TEER). In the basolateral chamber, monocytes were cultured separately. Epithelial cells were primed with inflammatory cytokines. The assays measured the effect of a therapeutic protein, i.e., SG-11, on epithelial barrier function, muc2 gene expression, and production of cytokines.
Cell culture. The HCT8 human enterocyte cell line (ATCC Cat. No. CCL-244) was maintained in RPMI-1640 medium supplemented with 10% fetal bovine serum, 100 IU/ml penicillin, 100 μg/ml streptomycin, 10 μg/ml gentamicin and 0.25 μg/ml amphotericin (cRPMI). […]
Epithelial cell culture. […] Epithelial cells were trypsinized from culture flasks and viable cells determined by trypan blue counting. […]
Co-culture assay. […] Trans-epithelial electrical resistance (TEER) readings were measured after the IFN-γ treatment and were used as the pre-treatment TEER values. […]

[2] = tested on: C57BL/6 mice given 2.5% DSS in drinking water; assay: Therapeutic DSS model of inflammatory bowel disease, treatment after 7 days DSS (Example 5, Example 13B); format: in vivo, mouse; settings: Example 13B; for LBP in serum (ELISA): 50 nmole/kg i.p. b.i.d. for 4 days after 7 days DSS, FIG. 19B; for Colon length / Colon weight to length ratio: 50 nmole/kg, vs DSS+vehicle; for Colon length: FIG. 22B; for Colon weight to length ratio: p<0.01, FIG. 23B; for Body weight changes: 50 nmoles/kg, day 11, p<0.05, FIG. 20B
Procedure: In this example, experiments were performed to study the effects of SG-11 in the DSS mouse model when the SG-11 protein is administered to the mice after DSS treatment for 7 days. This differs from the treatment regimen of Example 4 above in which mice were administered SG-11 protein shortly before treatment with DSS.
Eight-week-old male C57BL/6 mice were housed 5 animals per cage and given food and water ad libitum for seven days. Following a 7-day acclimation period, the mice were provided with drinking water containing 2.5% DSS for 7 days. Fresh 2.5% DSS water was prepared every 2 days during the 7 day DSS administration. For this therapeutic DSS study, SG-11 used to treat the animals was fused at its N-terminus to a FLAG Tag (DYKDDDDK; SEQ ID NO:32).
On day 7 normal drinking water was restored and i.p. treatments of 50 nmole/kg of SG-11 (1.3 mg/kg) or Gly2-GLP2 (0.2 mg/kg) were initiated. Treatments were administered twice a day (b.i.d.), with a morning and evening dose (every 8 and 16 hours) for six days.
Body weight was measured daily during the morning treatment. The colon tissue was then harvested and length was measured in centimeters and the tissue was weighed. Fecal material was flushed from the colon and residual PBS removed by gently running the colon tissue through a pair of forceps. The colon tissue was then weighed and colon weight to length ratio in mg/mm was determined. Following weight measurements proximal and distal colon tissue was banked for RNA and protein analysis and the remaining tissues was fixed in 10% neutral buffered formalin for histopathology. Statistical analysis was performed by a one-way ANOVA compared to DSS+vehicle for serum 4KDa-FITC translocation, serum LBP concentrations, colon length, and colon weight to length ratio, while a two-way ANOVA was performed for analysis of body weight. In all analysis, a Fisher's LSD test for multiple comparisons was used. Graphs represent data pooled from two experiments, and are plotted as mean±SEM.
Histopathology analysis was performed on proximal and distal colon tissues from the therapeutic DSS model described above. Proximal (FIG. 13A) and distal (FIG. 13B) colon scores (range 0-4) are presented and as well as the total score for the colon which represents the sum of proximal and distal colon scores (Range 0-8) (FIG. 13C). LMA=Loss of mucosal architecture, Edema=Edema, INF=Inflammation, TMI=Transmural inflammation, MH=Mucosal hyperplasia, DYS=Dysplasia. Graphs represent data pooled from two independent experiments, and are plotted as mean±SEM. Statistical analysis was performed by a one-way ANOVA compared to DSS+vehicle followed by a Fisher's LSD test for multiple comparisons.
In the second experiment (Example 13B), mice were provided with drinking water containing 2.5% DSS for 7 days. On day 7 normal drinking water was restored and i.p. treatments of 50 nmole/kg of SG-11 (SEQ ID NO:7) (1.3 mg/kg), SG-11V5 (SEQ ID NO:19) (1.3 mg/kg), or Gly2-GLP2 (0.2 mg/kg) were initiated. Treatments were administered twice a day (b.i.d.), with a morning and evening dose (every 8 and 16 hours) for 4 days. For both the prophylactic and therapeutic models fresh 2.5% DSS water was prepared every 2 days during the DSS administration.
At the end of each DSS model study, mice were fasted for 4 hours and then orally gavaged with 600 mg/kg 4KDa dextran labeled with fluorescein isothiocyanate (FITC) [4KDa-FITC]. One hour after the 4KDa-FITC gavage mice were euthanized, blood was collected and FITC signal was measured in serum. […] Data in both graphs are plotted as mean±SEM and each figure represent data from an individual experiment (n=10 per group).
Upon completion of the DSS models above, LBP levels were measured as an inflammation centric readout of barrier function following the protocol detailed in Example 5. Upon completion of both DSS models (Examples 13A and 13B) blood was collected and serum was isolated. […]

[3] = Post-translational modifications after storage, LC-MS/MS, SG-11 vs SG-11V5 (Example 10); format: physicochemical; settings: for Oxidation of M1 (MLEGEESVVYVGK): 1 mg/ml in Buffer 1 (50 mM NaPO4, pH 8, 150 mM NaCl, 10% glycerol)
Procedure: In accordance with PTMs observed when SG-11 (SEQ ID NO:9) was subjected to stress conditions (Example 11), SG-11V5 (SEQ ID NO:19) was analyzed by LC-MS/MS for post translational modifications using the methods described in Example 11, and compared with PTMs for SG-11 (SEQ ID NO:7)
For this analysis, PTMs of wildtype SG-11 (SEQ ID NO:7) and SG-11V5 (SEQ ID NO:19) were compared. In the first analysis (results provided in Table 10 below), the proteins were stored at a concentration of 1 mg/ml in Buffer 1 (50 mM NaPO4^−, pH 8, 150 mM NaCl, 10% glycerol) and stored for 2 weeks at either 4° C. or 40° C. The proteins were then treated with DTT and IAA, followed by trypsin digestion. The digested samples were then analyzed by Waters ACQUITY UPLC couples to Xevo G2-XS QTOF mass spectrometer using a Protein BEH C18 column.
In a second analysis, the SG-11 (SEQ ID NO:7) and SG-11V5 (SEQ ID NO:19) proteins were each stored at 40° C. in a variety of buffers. The storage buffer used in this experiment was 100 mM NaPO4^−, pH7, with 10% sorbitol (+Sor) or without 10% sorbitol (−Sor) and with 10% glycerol (+Gly) or without 10% glycerol (−Gly) as indicated in Table 11. […] There were also differences in levels of N137 deamidation for the two proteins with the presence of at least glycerol and also the presence of both sorbitol and glycerol resulting in large decreases in N137 deamidation.

[4] = 4° C., 2 weeks, 1 mg/ml in Buffer 1 (pH 8)
[5] = 40° C., 2 weeks, 1 mg/ml in Buffer 1 (pH 8)
[6] = 40° C., 100 mM NaPO4, pH7, +Sor (10% sorbitol) −Gly
[7] = 40° C., 100 mM NaPO4, pH7, +Sor +Gly
[8] = 40° C., 100 mM NaPO4, pH7, −Sor +Gly (10% glycerol)
[9] = 40° C., 100 mM NaPO4, pH7, −Sor −Gly

Molecule	TEER after HK E. coli (normalized, relative to untreated samples) [1]	LBP in serum (ELISA) [2]	Colon length [2]	Colon weight to length ratio [2]	Body weight changes [2]	Oxidation of M1 (MLEGEESVVYVGK) ([3]; 4° C., 2 weeks)	Deamidation of N137 (ANTDVK) [3, 4]	Oxidation of M1 (MLEGEESVVYVGK) ([3]; 40° C., 2 weeks)	Deamidation of N137 (ANTDVK) [3, 5]	Deamidation of N137 [3, 6]	Oxidation of M1 [3, 6]	Deamidation of N137 [3, 7]	Oxidation of M1 [3, 7]	Deamidation of N137 [3, 8]	Oxidation of M1 [3, 8]	Deamidation of N137 [3, 9]	Oxidation of M1 [3, 9]	other results
SG-11 (SEQ ID NO:7): Recombinant SG-11 with N-terminal methionine, 233 amino acids, no N-terminal tag (protein) MLEGEESVVYVGKKGVIASLDVETLDQSYYDETELKSYVDAEVEDYTAEHGKNAVKVESLKVEDGVAKLKMKYKTPEDYTAFNGIELYQGKVVASLAAGYVYDGEFARVEEGKVVGAATKQDIYSEDDLKVAIIRANTDVKVDGEICYVSCQNVKLTGKDSVSIRDGYYLETGSVTASVDVTGQESVGTEQLSGTEQMEMTGEPVNADDTEQTEAAAGDGSFETDVYTFIVYK	89.5%	no reduction in LBP	significant increase in the colon length	significantly improved colon weight to length ratios	statistically improved body weight changes	8.9%	1.0%	12.5%	0.9%	2.6%	12.1%	2.5%	27.8%	3.0%	38.6%	0.9%	20%	Deamidation of N83 [3, 4]: 19.4%; Deamidation of N83 [3, 5]: 98.1%; Deamidation of N83 [3, 6]: 93.9%; Deamidation of N83 [3, 7]: 87.4%; Deamidation of N83 [3, 8]: 96.2%; Deamidation of N83 [3, 9]: 98.1%
SG-11V5: SG-11 variant SEQ ID NO:19 comprising N53S, N83S, C147V, C151S with respect to SEQ ID NO:7 (protein) MLEGEESVVYVGKKGVIASLDVETLDQSYYDETELKSYVDAEVEDYTAEHGKSAVKVESLKVEDGVAKLKMKYKTPEDYTAFSGIELYQGKVVASLAAGYVYDGEFARVEEGKVVGAATKQDIYSEDDLKVAIIRANTDVKVDGEIVYVSSQNVKLTGKDSVSIRDGYYLETGSVTASVDVTGQESVGTEQLSGTEQMEMTGEPVNADDTEQTEAAAGDGSFETDVYTFIVYK	89.1%	no reduction in LBP	significant increase in the colon length	significantly improved colon weight to length ratios	statistically improved body weight changes	2.5%	0.1%	4.7%	0.3%	3.3%	3.3%	0.1%	5.9%	0.4%	5.6%	1.5%	2.7%	
